Test system: serum uric acid (sUA)
Assay: Serum uric acid (sUA) levels and sUA responders, open-label study of pegloticase with MTX (NCT03635957)
Assay type: in vivo, human
Protocol: The primary objective is to estimate the response rate during Month 6 (Weeks 20, 22, and 24), as measured by the sustained normalization of serum uric acid (SUA) to <6 mg/dL for at least 80% of the time during Month 6 in subjects receiving KXX with MTX.
The primary efficacy outcome endpoint is the sustained normalization of SUA to <6 mg/dL for at least 80% of the time during month 6 (weeks 20, 22, and 24) in subjects receiving KXX with MTX. This is slightly below the urate solubility threshold and this threshold has been the accepted standard for nearly all modern gout trials. Participants who achieve this endpoint were classified as “responders.” Serum uric acid (SUA) responders may also be defined as participants achieving and maintaining SUA <6 mg/dL for at least 80% of the time during Month 6 (Weeks 20, 22, and 24).
Blood samples may be collected prior to each pegloticase infusion for measurement of SUA levels using the Beckman Coulter AU System Uric Acid procedure. Participants were declared “non-responders” if there were SUA measures >6 mg/dL at 2 consecutive study visits beginning with the week 2 visit. […] If the SUA goal is not maintained before or at the 12-week mark, it was assumed that the participant had developed clinically relevant anti-pegloticase antibody and they received no further infusions. This assumption and subsequent discontinuation of pegloticase was consistent with the protocol of large phase III randomized controlled trials and the product label. A formal stopping rule was 2 occasions of SUA levels of greater than 6 mg/dL.
Clinical Chemistry—Blood samples were collected prior to each pegloticase infusion for measurement of SUA levels (primary efficacy parameter) using the Beckman Coulter AU System Uric Acid procedure. In this procedure uric acid is converted to hydrogen peroxide. Hydrogen peroxide reacts with reagent to produce a chromophore which is read bichromatically at 660/800 nm. The amount of dye formed is proportional to the uric acid concentration in the sample.
Serum samples for measurement of SUA levels were collected at the Screening Visit, the Week −4 Visit (prior to the first dose of MTX), and the Week −2 Visit during the MTX Run-in Period; within 48 hours prior to each pegloticase infusion and after the end of each pegloticase infusion prior to discharge from the site during the Pegloticase+IMM Period; at the non-infusion Week 52/End of Study/Early Termination Visits and at the Post Treatment 3 and 6 Month Follow-up Visits. Additional serum samples for SUA levels were collected at optional non-infusion (Frequent Sampling) Visits at Weeks 1 and 7. […] Subjects with SUA level >6 mg/dL at 2 consecutive visits beginning at Week 2 visit discontinued treatment, completed the End of Pegloticase Infusion Visit procedures within 2 weeks and continued the subject visits according to the protocol (without treatment).
Efficacy analyses were performed using the modified intention-to-treat (mITT) population, defined as all enrolled subjects who received ≥1 dose of pegloticase. The proportion of Month 6 responders was summarized, along with a 95% confidence interval for the proportion. The proportion of Month 3 and overall (Months 3 and 6 combined) responders was analyzed similarly.
A subject was declared a non-responder if the subject had SUA level >6 mg/dL at 2 consecutive study visits beginning with the Week 2 Visit. In addition, a subject who withdraws from study treatment for any reason after the first dose of pegloticase in the KXX+MTX Period and prior to Month 6 (for the primary endpoint) or Month 3 (for the secondary endpoint) was considered a non-responder if SUA values were not collected at the planned time points.
Patients were administered oral MTX (15 mg/week) and folate (1 mg/day) 4 weeks prior to the first pegloticase infusion (Day 1) and throughout the pegloticase treatment period. […]

[1] = Week 6 - Pre-Infusion, Month 6 sUA Responders
[2] = Week 6 - Pre-Infusion, mITT, n=13
[3] = Week 8 - Post-Infusion, Month 6 sUA Non-Responders
[4] = Week 8 - Post-Infusion, Month 6 sUA Responders
[5] = Week 8 - Post-Infusion, mITT, n=12
[6] = Week 8 - Pre-Infusion, Month 6 sUA Non-Responders
[7] = Week 8 - Pre-Infusion, Month 6 sUA Responders
[8] = Week 8 - Pre-Infusion, mITT, n=12
[9] = Week 10 - Post-Infusion, Month 6 sUA Responders
[10] = Week 10 - Post-Infusion, mITT, n=11
[11] = Week 10 - Pre-Infusion, Month 6 sUA Non-Responders
[12] = Week 10 - Pre-Infusion, Month 6 sUA Responders
[13] = Week 10 - Pre-Infusion, mITT, n=12
[14] = Week 12 - Post-Infusion, Month 6 sUA Responders
[15] = Week 12 - Post-Infusion, mITT, n=10
[16] = Week 12 - Pre-Infusion, Month 6 sUA Responders
[17] = Week 12 - Pre-Infusion, mITT, n=11
[18] = Week 14 - Post-Infusion, Month 6 sUA Responders
[19] = Week 14 - Post-Infusion, mITT, n=10
[20] = Week 14 - Pre-Infusion, Month 6 sUA Responders
[21] = Week 14 - Pre-Infusion, mITT, n=11
[22] = Week 16 - Post-Infusion, Month 6 sUA Responders
[23] = Week 16 - Post-Infusion, mITT, n=11
[24] = Week 16 - Pre-Infusion, Month 6 sUA Responders
[25] = Week 16 - Pre-Infusion, mITT, n=11
[26] = Week 18 - Post-Infusion, Month 6 sUA Responders
[27] = Week 18 - Post-Infusion, mITT, n=11

B1: pegloticase (protein)
chain: TYKKNDEVEFVRTGYGKDMIKVLHIQRDGKYHSIKEVATTVQLTLSSKKDYLHGDNSDVIPTDTIKNTVNVLAKFKGIKSIETFAVTICEHFLSSFKHVIRAQVYVEEVPWKRFEKNGVKHVHAFIYTPTGTHFCEVEQIRNGPPVIHSGIKDLKVLKTTQSGFEGFIKDQFTTLPEVKDRCFATQVYCKWRYHQGRDVDFEATWDTVRSIVLQKFAGPYDKGEYSPSVQKTLYDIQVLTLGQVPEIEDMEISLPNIHYLNIDMSKMGLINKEEVLLPLDNPYGKITGTVKRKLSSRL
modifications: monomethoxy PEG conjugated; Krystexxa Sequence
notes: covalent conjugate of uricase produced by a genetically modified strain of Escherichia coli and monomethoxypoly (ethylene glycol)
[1]
  sUA < 6 mg/dL, %: (100%)
  sUA Change from Baseline, Mean: -8.97 mg/dL
  sUA Change from Baseline, Median: -8.80 mg/dL
  sUA Observed, Mean: 0.30 mg/dL
  sUA Observed, Median: 0.30 mg/dL
[2]
  sUA < 6 mg/dL, n (%): 12 (92.3%)
  sUA Change from Baseline, Mean (SD): −8.31 (3.538) mg/dL
  sUA Change from Baseline, Median: -8.80 mg/dL
  sUA Observed, Mean (SD): 0.91 (2.191) mg/dL
  sUA Observed, Median: 0.30 mg/dL
Week 7, Month 6 sUA Responders
  sUA < 6 mg/dL, %: (100%)
  sUA Change from Baseline, Mean: -8.90 mg/dL
  sUA Observed, Mean: 0.30 mg/dL
Week 7, mITT, n=4
  sUA < 6 mg/dL, n (%): 4 (100%)
  sUA Change from Baseline, Mean (SD): −8.90 (4.755) mg/dL
  sUA Change from Baseline, Median: -7.85 mg/dL
  sUA Observed, Mean (SD): 0.30 (0.000) mg/dL
  sUA Observed, Median: 0.30 mg/dL
[3]
  sUA < 6 mg/dL, %: (100%)
  sUA Change from Baseline, Mean: -9.10 mg/dL
  sUA Observed, Mean: 0.30 mg/dL
[4]
  sUA < 6 mg/dL, %: (100%)
  sUA Change from Baseline, Mean: -8.97 mg/dL
  sUA Observed, Mean: 0.30 mg/dL
[5]
  sUA < 6 mg/dL, n (%): 12 (100%)
  sUA Change from Baseline, Mean (SD): −8.98 (2.679) mg/dL
  sUA Change from Baseline, Median: -8.95 mg/dL
  sUA Observed, Mean (SD): 0.30 (0.000) mg/dL
  sUA Observed, Median: 0.30 mg/dL
[6]
  sUA Change from Baseline, Mean: -0.50 mg/dL
  sUA Observed, Mean: 8.90 mg/dL
[7]
  sUA < 6 mg/dL, %: (100%)
  sUA Change from Baseline, Mean: -8.91 mg/dL
  sUA Observed, Mean: 0.37 mg/dL
[8]
  sUA < 6 mg/dL, n (%): 11 (91.7%)
  sUA Change from Baseline, Mean (SD): −8.20 (3.624) mg/dL
  sUA Change from Baseline, Median: -8.33 mg/dL
  sUA Observed, Mean (SD): 1.08 (2.472) mg/dL
  sUA Observed, Median: 0.30 mg/dL
[9]
  sUA < 6 mg/dL, %: (100%)
  sUA Change from Baseline, Mean: -8.97 mg/dL
  sUA Change from Baseline, Median: -8.80 mg/dL
  sUA Observed, Mean: 0.30 mg/dL
  sUA Observed, Median: 0.30 mg/dL
[10]
  sUA < 6 mg/dL, n (%): 11 (100%)
  sUA Change from Baseline, Mean (SD): −8.97 (2.810) mg/dL
  sUA Change from Baseline, Median: -8.80 mg/dL
  sUA Observed, Mean (SD): 0.30 (0.000) mg/dL
  sUA Observed, Median: 0.30 mg/dL
[11]
  sUA Change from Baseline, Mean: -1.30 mg/dL
  sUA Observed, Mean: 8.10 mg/dL
[12]
  sUA < 6 mg/dL, %: (100%)
  sUA Change from Baseline, Mean: -8.97 mg/dL
  sUA Observed, Mean: 0.30 mg/dL
[13]
  sUA < 6 mg/dL, n (%): 11 (91.7%)
  sUA Change from Baseline, Mean (SD): −8.33 (3.476) mg/dL
  sUA Change from Baseline, Median: -8.70 mg/dL
  sUA Observed, Mean (SD): 0.95 (2.252) mg/dL
  sUA Observed, Median: 0.30 mg/dL
[14]
  sUA < 6 mg/dL, %: (100%)
  sUA Change from Baseline, Mean: -9.13 mg/dL
  sUA Change from Baseline, Median: -9.05 mg/dL
  sUA Observed, Mean: 0.30 mg/dL
  sUA Observed, Median: 0.30 mg/dL
[15]
  sUA < 6 mg/dL, n (%): 10 (100%)
  sUA Change from Baseline, Mean (SD): −9.13 (2.911) mg/dL
  sUA Change from Baseline, Median: -9.05 mg/dL
  sUA Observed, Mean (SD): 0.30 (0.000) mg/dL
  sUA Observed, Median: 0.30 mg/dL
[16]
  sUA < 6 mg/dL, %: (100%)
  sUA Change from Baseline, Mean: -8.98 mg/dL
  sUA Change from Baseline, Median: -8.80 mg/dL
  sUA Observed, Mean: 0.30 mg/dL
  sUA Observed, Median: 0.30 mg/dL
[17]
  sUA < 6 mg/dL, n (%): 11 (100%)
  sUA Change from Baseline, Mean (SD): −8.98 (2.806) mg/dL
  sUA Change from Baseline, Median: -8.80 mg/dL
  sUA Observed, Mean (SD): 0.30 (0.015) mg/dL
  sUA Observed, Median: 0.30 mg/dL
[18]
  sUA < 6 mg/dL, %: (100%)
  sUA Change from Baseline, Mean: -9.01 mg/dL
  sUA Change from Baseline, Median: -9.05 mg/dL
  sUA Observed, Mean: 0.30 mg/dL
  sUA Observed, Median: 0.30 mg/dL
[19]
  sUA < 6 mg/dL, n (%): 10 (100%)
  sUA Change from Baseline, Mean (SD): −9.01 (2.959) mg/dL
  sUA Change from Baseline, Median: -9.05 mg/dL
  sUA Observed, Mean (SD): 0.30 (0.000) mg/dL
  sUA Observed, Median: 0.30 mg/dL
[20]
  sUA < 6 mg/dL, %: (100%)
  sUA Change from Baseline, Mean: -8.97 mg/dL
  sUA Change from Baseline, Median: -8.80 mg/dL
  sUA Observed, Mean: 0.30 mg/dL
  sUA Observed, Median: 0.30 mg/dL
[21]
  sUA < 6 mg/dL, n (%): 11 (100%)
  sUA Change from Baseline, Mean (SD): −8.97 (2.810) mg/dL
  sUA Change from Baseline, Median: -8.80 mg/dL
  sUA Observed, Mean (SD): 0.30 (0.000) mg/dL
  sUA Observed, Median: 0.30 mg/dL
[22]
  sUA < 6 mg/dL, %: (100%)
  sUA Change from Baseline, Mean: -8.97 mg/dL
  sUA Change from Baseline, Median: -8.80 mg/dL
  sUA Observed, Mean: 0.30 mg/dL
  sUA Observed, Median: 0.30 mg/dL
[23]
  sUA < 6 mg/dL, n (%): 11 (100%)
  sUA Change from Baseline, Mean (SD): −8.97 (2.810) mg/dL
  sUA Change from Baseline, Median: -8.80 mg/dL
  sUA Observed, Mean (SD): 0.30 (0.000) mg/dL
  sUA Observed, Median: 0.30 mg/dL
[24]
  sUA < 6 mg/dL, %: (100%)
  sUA Change from Baseline, Mean: -8.97 mg/dL
  sUA Change from Baseline, Median: -8.80 mg/dL
  sUA Observed, Mean: 0.30 mg/dL
  sUA Observed, Median: 0.30 mg/dL
[25]
  sUA < 6 mg/dL, n (%): 11 (100%)
  sUA Change from Baseline, Mean (SD): −8.97 (2.810) mg/dL
  sUA Change from Baseline, Median: -8.80 mg/dL
  sUA Observed, Mean (SD): 0.30 (0.000) mg/dL
  sUA Observed, Median: 0.30 mg/dL
[26]
  sUA < 6 mg/dL, %: (100%)
  sUA Change from Baseline, Mean: -8.97 mg/dL
  sUA Change from Baseline, Median: -8.80 mg/dL
  sUA Observed, Mean: 0.30 mg/dL
  sUA Observed, Median: 0.30 mg/dL
[27]
  sUA < 6 mg/dL, n (%): 11 (100%)
  sUA Change from Baseline, Mean (SD): −8.97 (2.810) mg/dL
  sUA Change from Baseline, Median: -8.80 mg/dL
  sUA Observed, Mean (SD): 0.30 (0.000) mg/dL
  sUA Observed, Median: 0.30 mg/dL
Week 18 - Pre-Infusion, Month 6 sUA Responders
  sUA < 6 mg/dL, %: (100%)
